The values that follow come from article PMC12299905, “Pathogen Enzyme-Mediated Alkoxyamine Homolysis as a Killing Mechanism of Aspergillus fumigatus” (Journal of Fungi, 2025).

In brackets after ≈: the same amount, converted by molar mass.

In general, MIC refers to the least concentration at which growth counts as inhibited. The low end stands for inhibition by little substance, the high end for a need for much substance.

A short description of data set [1]: Homolysis kinetics / stability of alkoxyamines by EPR. In kind it is physicochemical. The settings on record: for activation energy Ea of homolysis: from kd by Arrhenius law. Here is the method:
Homolysis constants were measured by Electronic Paramagnetic Resonance (EPR) on a EMX Bruker spectrometer, with O2 as the alkyl radical scavenger, as previously reported. Thermic activation led to the liberation of nitroxide: (2,2,6,6-tetramethylpiperidin-1-yl)oxyl (TEMPO). The details of the kinetic experiments in aqueous or solvent phases and the values of homolysis rate constants (kd), activation energies (Ea), and half-life times (t1/2) are reported in Supplementary Information and Data (see below).
Indeed, the activation energies of these alkoxyamines range from 121 to 140 kJ/mol with half-life times longer than 10 days (Supplementary Table S1). Moreover, the values were measured for a mixture of the two diastereoisomers. […] The solvent effect (i.e., t-BuPh) versus H2O/1-PrOH (99:1) was also investigated. […] Overall, there is no stability concern for these molecules with respect to the subsequent biological studies.
EPR kinetic figures of homolysis rate constants ( kd), activation energies ( Ea) and half-life
Molecule Solvent T (°C)a kd (s-1)b,c Ea (kJ·mol-1)d t1/2(37 °C) (days)

Data set [2] deals with FC240 azole-resistant strain. Put plainly: Exposure of A. fumigatus spores to alkoxyamines, azole-resistant strain. In kind it is cell-based. The note with it: Aspergillus fumigatus. Here is the method:
(§1) Ku80 azole-susceptible strain and FC240 azole-resistant strain were kindly provided by Prof. J.-P. Latge and Dr E. Fréalle (Lille University Hospitals, Lille, France). The latter strain harbors a 34 bp tandem repeat mutation (TR34) in the cyp51A gene promoter combined with a substitution in codon L98H. The strains of A. fumigatus were used for spore preparation as previously described. Briefly, spores were grown from frozen stocks on Sabouraud + Chloramphenicol agar tubes (BioMérieux, Marcy l’Etoile, France) at 37 °C for 7 days. Next, conidia were collected by scraping and suspending in PBS containing 0.01% Tween 20 (Sigma-Aldrich®, St. Louis, MO, USA). Spore counting was performed using a Kova® hemacytometer, and aliquots of 10^6 spores were prepared.
(§2) A. fumigatus spores were exposed to various concentrations of alkoxyamines (1, 10, 100, and 1000 µM), with each concentration in triplicate. Controls were grown alone (without alkoxyamine treatment) or exposed to the antifungal voriconazole under the same experimental conditions. Briefly, the reactions were performed in well plates in a total volume of 250 μL RPMI medium. At the end of the incubation time period (48 h), the optical densities (OD600 nm) of scrapped cultures were recorded in one set of the reactions using a spectrophotometer (Thermo Fisher Scientific, Illkirch, France). […] Experiments were repeated at least three times.

Data set [3] relates to Ku80 azole-susceptible strain. As to the kind of experiment: Exposure of A. fumigatus spores to alkoxyamines, azole-susceptible strain. It counts as cell-based. The settings on record: Aspergillus fumigatus. The method, then:
as §1, §2

Where [4] appears, read: H2O/1-PrOH 99:1, extrapolated to 37 °C.
[5] abbreviates: t-BuPh/DCM 99:1, extrapolated to 37 °C.
[6] abbreviates: t-BuPh, mixture of two diastereoisomers.

In the case of `CC(ON1C(C)(C)CCCC1(C)C)c1ccc(NC(=O)[C@@H]2CCCN2C(=O)CNC(=O)CCC(=O)O)cc1` (stereo partly shown) [VIa], the results for the “half-life time t1/2 (37 °C) of homolysis” value in data set [1] (setting [4]) and in data set [1] (setting [5]) were 10 days and 1519 days, respectively. The “activation energy Ea of homolysis” value in data set [1] (H2O/1-PrOH 99:1) came to 29.06 kcal/mol; in data set [1] (t-BuPh/DCM 99:1), 32.15 kcal/mol.
Take `CC(ON1C(C)(C)CCCC1(C)C)c1ccc(NC(=O)[C@@H]2CCCN2C(=O)CNC(=O)OCC2c3ccccc3-c3ccccc32)cc1` (stereo partly shown) [4a]: the “activation energy Ea of homolysis” value in data set [1] (setting [6]) was found to be 33.34 kcal/mol.
On to `CC(ON1C(C)(C)CCCC1(C)C)c1ccc(NC(=O)[C@@H]2CCCN2C(=O)[C@H](C)NC(=O)CCC(=O)O)cc1` (stereo partly shown) [VIb], for which the “half-life time t1/2 (37 °C) of homolysis” value is recorded as 199 days in data set [1] (setting [4]) and 3632 days in data set [1] (setting [5]). Also, the figures for the “activation energy Ea of homolysis” value in data set [1] (H2O/1-PrOH 99:1) and in data set [1] (t-BuPh/DCM 99:1) were 30.9 kcal/mol and 32.7 kcal/mol, respectively.
As for `CC(ON1C(C)(C)CCCC1(C)C)c1ccc(NC(=O)[C@@H]2CCCN2C(=O)OC(C)(C)C)cc1` (stereo partly shown) [compound 2], in data set [1] (t-BuPh, extrapolated to 37 °C), the “half-life time t1/2 (37 °C) of homolysis” value was 5395 days. Also, the “activation energy Ea of homolysis” value in data set [1] (setting [6]) amounted to 32.93 kcal/mol.
Regarding `CC(ON1C(C)(C)CCCC1(C)C)c1ccc(NC(=O)[C@@H]2CCCN2C(=O)[C@H](C)NC(=O)OCC2c3ccccc3-c3ccccc32)cc1` (stereo partly shown) [4b], the “activation energy Ea of homolysis” value in data set [1] (setting [6]) amounted to 33.15 kcal/mol.
As to `CC(ON1C(C)(C)CCCC1(C)C)c1ccc(NC(=O)[C@@H]2CCCN2)cc1` (stereo partly shown) [compound 3], the “half-life time t1/2 (37 °C) of homolysis” value in data set [1] (setting [5]) is given as 2554 days. For the same compound, the “activation energy Ea of homolysis” value in data set [1] (t-BuPh/DCM 99:1) was found to be 32.48 kcal/mol.
For the compound `C[C@@H](c1ncncc1F)[C@](O)(Cn1cncn1)c1ccc(F)cc1F` [voriconazole], the MIC in data set [2] is 4 µg/mL (≈ 11.5 µM); in data set [3], 0.25 µg/mL (≈ 0.716 µM).
